The target of data set [1] is T1, von Willebrand factor (VWF) (Homo sapiens, UniProt P04275 SEQ:764-2813). Briefly: ELISA; no OD increase up to 10 uM BT200 after pre-incubation with BT101 at 1:1; dPBS, 37 C. On the procedure: (§1) The affinity of BT200, with or without pre-incubation with BT101, for purified human VWF was evaluated using an enzyme-linked immunosorbent assay (ELISA) method. In this study, purified human VWF protein was dissolved in Dulbecco's phosphate buffered saline (dPBS) buffer at a concentration of 10 μg/mL and 100 μL of this solution was added to each well of a Nunc Maxisorp 96-well plate. The plate was incubated overnight at 4° C. The following day, the plate was washed 3 times, followed by blocking with 5% bovine serum albumin (BSA) in dPBS at room temperature for 90 minutes. The blocked plate was then washed 3 times before adding either BT200 at concentrations of 0.3, 1, 3, 10, 30, 100, 300, 1000, 3000, and 10000 nM or a pre-incubated 1:1 molar ratio of BT101:BT200 at the same concentrations. BT101 and BT200 were mixed and incubated at 37° C. for 30 minutes prior to addition to the plate.
(§2) Plates were then incubated at 37° C. for 2 hours. Each plate was then washed 3 times and 100 μL of anti-PEG antibody at 1 μg/mL in 1% BSA/dPBS was added to each well and incubated for 1 hour at room temperature. […] To stop the reaction, 100 μL of 2 N H₂SO₄ was added to each well and the plate was then read at 450 nm for absorbance and the mean absorbance under each set of conditions was recorded.
A general note: An ELISA detects its analyte on a solid surface through an enzyme-linked reagent.

Data set [2] addresses T1, von Willebrand factor (VWF). Description: ELISA with anti-PEG detection; dPBS, 37 C, 2 h. On the procedure:
as §1, §2

The values below come from US20230038761, “REGULATION OF VON WILLEBRAND FACTOR (VWF)” (BAND THERAPEUTICS, LLC, published 2023).

A word on the EC50: it is the concentration needed to bring the measured effect to its halfway point. Low readings indicate a more potent agent, high ones a less potent agent.

T1 sequence (P04275 764-2813 Q852R): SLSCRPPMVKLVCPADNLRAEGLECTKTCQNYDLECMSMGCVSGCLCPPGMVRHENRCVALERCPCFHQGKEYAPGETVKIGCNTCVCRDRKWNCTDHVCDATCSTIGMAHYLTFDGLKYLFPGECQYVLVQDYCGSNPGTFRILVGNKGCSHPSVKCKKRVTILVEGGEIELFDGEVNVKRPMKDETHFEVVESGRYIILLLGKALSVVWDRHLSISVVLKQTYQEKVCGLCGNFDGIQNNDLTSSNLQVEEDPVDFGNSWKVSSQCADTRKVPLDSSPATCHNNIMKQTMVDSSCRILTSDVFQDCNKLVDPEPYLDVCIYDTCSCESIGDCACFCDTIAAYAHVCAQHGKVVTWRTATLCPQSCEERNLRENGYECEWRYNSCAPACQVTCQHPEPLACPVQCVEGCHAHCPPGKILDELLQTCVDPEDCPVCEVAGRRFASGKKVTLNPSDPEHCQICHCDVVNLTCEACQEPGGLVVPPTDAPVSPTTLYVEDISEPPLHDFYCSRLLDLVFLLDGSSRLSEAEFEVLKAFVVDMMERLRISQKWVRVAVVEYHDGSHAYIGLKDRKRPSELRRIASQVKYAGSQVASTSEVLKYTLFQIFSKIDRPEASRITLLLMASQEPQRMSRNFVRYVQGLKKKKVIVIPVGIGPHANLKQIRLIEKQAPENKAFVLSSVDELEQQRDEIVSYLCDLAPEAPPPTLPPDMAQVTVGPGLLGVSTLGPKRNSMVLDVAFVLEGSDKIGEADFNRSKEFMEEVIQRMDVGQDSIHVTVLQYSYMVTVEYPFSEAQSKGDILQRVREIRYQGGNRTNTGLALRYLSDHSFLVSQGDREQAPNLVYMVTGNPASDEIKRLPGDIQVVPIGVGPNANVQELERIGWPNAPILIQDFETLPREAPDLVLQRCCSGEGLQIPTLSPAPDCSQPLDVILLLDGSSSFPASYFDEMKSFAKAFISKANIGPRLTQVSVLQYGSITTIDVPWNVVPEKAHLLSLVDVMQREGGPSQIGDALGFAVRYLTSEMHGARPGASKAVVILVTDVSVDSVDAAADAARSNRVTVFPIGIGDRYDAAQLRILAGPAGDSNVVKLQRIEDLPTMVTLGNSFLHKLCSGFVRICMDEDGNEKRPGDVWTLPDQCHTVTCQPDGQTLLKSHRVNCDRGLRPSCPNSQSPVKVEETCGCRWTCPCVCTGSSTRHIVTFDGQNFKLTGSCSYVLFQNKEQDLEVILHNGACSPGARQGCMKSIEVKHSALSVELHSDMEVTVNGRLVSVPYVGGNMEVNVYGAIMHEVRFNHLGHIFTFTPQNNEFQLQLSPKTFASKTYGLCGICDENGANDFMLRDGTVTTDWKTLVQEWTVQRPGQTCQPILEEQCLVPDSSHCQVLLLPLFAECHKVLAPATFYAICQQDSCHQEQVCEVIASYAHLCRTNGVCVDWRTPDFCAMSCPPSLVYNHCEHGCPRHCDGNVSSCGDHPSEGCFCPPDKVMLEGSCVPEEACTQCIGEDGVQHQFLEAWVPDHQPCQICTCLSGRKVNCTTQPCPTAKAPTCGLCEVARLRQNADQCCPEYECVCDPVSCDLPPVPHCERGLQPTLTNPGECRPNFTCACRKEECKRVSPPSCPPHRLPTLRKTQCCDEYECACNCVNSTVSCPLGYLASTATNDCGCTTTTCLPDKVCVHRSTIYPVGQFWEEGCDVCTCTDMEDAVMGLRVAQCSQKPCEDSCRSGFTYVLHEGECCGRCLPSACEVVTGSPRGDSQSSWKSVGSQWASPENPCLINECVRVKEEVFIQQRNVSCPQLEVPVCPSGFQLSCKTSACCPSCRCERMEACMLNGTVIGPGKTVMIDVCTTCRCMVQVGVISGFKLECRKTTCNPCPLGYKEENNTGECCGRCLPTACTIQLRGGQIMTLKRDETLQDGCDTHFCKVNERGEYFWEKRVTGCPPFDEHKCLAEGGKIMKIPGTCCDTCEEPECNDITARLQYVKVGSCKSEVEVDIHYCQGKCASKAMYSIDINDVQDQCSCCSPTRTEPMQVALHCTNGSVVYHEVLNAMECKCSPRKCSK

B1: BT200/BT101 duplex (dsRNA)
RNA 1: GCCAGGGACCUAAGACACAUGUCCCUGGC
RNA 2: ACAUGUGUCUUAGGUCCCUGGCT
modifications: all residues 2'-OMe in both strands; BT200 5' PEG40K-NH; 3' idT on both strands
In the case of B1, the binding result in data set [1] is on record as “no binding”. Take GCCAGGGACCUAAGACACAUGUCCCUGGC (ssRNA, all residues 2'-OMe; 5' PEG40K-NH; 3' idT (final t of SEQ 6)) [BT200]: the EC50 in data set [2] is 331 nM.
